Drawing on patent publication US8535928B2, “Protease and use thereof” (Osaka University, priority 2008, dated 2013), this text covers Km, Vmax and kcat for two proteins.

Substrate in series [1]: C[C@H](NC(=O)CCC(=O)O)C(=O)N[C@@H](C)C(=O)N1CCC[C@H]1C(=O)N[C@@H](Cc1ccccc1)C(=O)Nc1ccc([N+](=O)[O-])cc1
Put plainly: Rate parameters of Tk-SP with Suc-AAPF-pNA (Michaelis-Menten). In kind it is biochemical, Thermococcus kodakaraensis KOD1. The conditions noted are these: substrate 0.01 to 2 mM. As to the method: (§1) For examination of the pH dependence and the buffer dependence of the Tk-SP, enzyme reactions were performed using acetate buffers (pH 4.5, 5.0, 5.2, 5.4 and 5.6), MES buffers (pH 5.5, 6.0, 6.5 and 7.0), HEPES buffers (pH 7.0 and 7.5), Tris-HCl buffers (pH 7.0, 7.5, 8.0, 8.5 and 9.0), glycine-NaOH buffers (pH 8.5, 9.0, 9.5 and 10.0) and CAPS-NaOH buffers (pH 9.0, 9.5, 10.0, 10.5, 11.0 and 11.5) in the following procedure. 100 μl of a reaction mixture containing a 50 mM buffer and 2 mM Suc-AAPF-pNA (synthetic substrate) was incubated at 20° C. for 5 minutes. To this, 0.1 μg of the Tk-SP was added and the reaction mixture was further incubated at 20° C. for 10 minutes. The reaction was stopped by addition of 10 μl of acetic acid, and then the amount of p-nitroaniline produced from the synthetic substrate Suc-AAPF-pNA was determined by use of the absorption coefficient of 8900 M^−1 cm^−1 from the absorbance at 410 nm in an ultraviolet spectrophotometer (Beckman model DU640). The amount of the enzyme which catalyzes the production of 1 μmol of p-nitroaniline per minute was defined as “one unit.” The enzyme activity per milligram of the protein was defined as specific activity.
(§2) By use of, as a substrate, Suc-AAPF-pNA at various concentrations ranging from 0.01 to 2 mM, the specific activity of the Tk-SP was measured at 20 and 80° C. The measurement procedure was the same as that of Example 2. The obtained values were applied to the Michaelis-Menten equation for calculation of the rate parameters. For comparison, the specific activity of a known thermostable protease, Tk-subtilisin (see nonpatent literature 1) was similarly measured and then the rate parameters thereof were calculated.

Substrate in series [2]: C[C@H](NC(=O)CCC(=O)O)C(=O)N[C@@H](C)C(=O)N1CCC[C@H]1C(=O)N[C@@H](Cc1ccccc1)C(=O)Nc1ccc([N+](=O)[O-])cc1
Put plainly: Rate parameters of Tk-subtilisin with Suc-AAPF-pNA (Michaelis-Menten), comparison. In kind it is biochemical, Thermococcus kodakaraensis KOD1. The conditions noted are these: substrate 0.01 to 2 mM. On the procedure:
as §1, §2

B1: Thermococcus kodakaraensis KOD1 protease Tk-SP (mature subtilisin-like serine protease, SEQ ID NO: 1 or SEQ ID NO: 3) (Thermococcus kodakarensis KOD1) (protein)
chain: VETEGLDESAAQVMATNMWNLGYDGSGITIGIIDTGIDASHPDLQGKVIGWVDFVNGKTTPYDDNGHGTHVASIAAGTGAASNGKYKGMAPGAKLVGIKVLNGQGSGSISDIINGVDWAVQNKDKYGIKVINLSLGSSQSSDGTDSLSQAVNNAWDAGLVVVVAAGNSGPNKYTVGSPAAASKVITVGAVDKYDVITDFSSRGPTADNRLKPEVVAPGNWIIAARASGTSMGQPINDYYTAAPGTSMATPHVAGIAALLLQAHPSWTPDKVKTALIETADIVKPDEIADIAYGAGRVNAYKAAYYDNYAKLTFTGYVSNKGSQSHQFTISGAGFVTATLYWDNSGSDLDLYLYDPNGNQVDYSYTAYYGFEKVGYYNPTAGTWTIKVVSYSGSANYQVDVVSDGSLGQPSGGGSEPSPSPSPEPTV
notes: C-terminus at 562 or 563
With B1, in series [1] (other: 20° C., 20.0 °C), the Km came out at 117 µM, the Vmax amounted to 2.312 U/mg and the kcat stood at 1.704 S^−1. Further, in series [1] (other: 80° C., 80.0 °C), the Km worked out at 416 µM, the Vmax came to 34.84 U/mg and the kcat is 25.668 S^−1.

B2: Thermococcus kodakaraensis KOD1 Tk-subtilisin (Tk-sub) (Thermococcus kodakarensis KOD1) (protein)
chain: GKPSWLGGGSTQPAQTIPWGIERVKAPSVWSITDGSVSVIQVAVLDTGVDYDHPDLAANIAWCVSTLRGKVSTKLRDCADQNGHGTHVIGTIAALNNDIGVVGVAPGVQIYSVRVLDARGSGSYSDIAIGIEQAILGPDGVADKDGDGIIAGDPDDDAAEVISMSLGGPADDSYLYDMIIQAYNAGIVIVAASGNEGAPSPSYPAAYPEVIAVGAIDSNDNIASFSNRQPEVSAPGVDILSTYPDDSYETLMGTSMATPHVSGVVALIQAAYYQKYGKILPVGTFDDISKNTVRGILHITADDLGPTGWDADYGYGVVRAALAVQAALG
Turning to B2, in series [2] (other: 20° C., 20.0 °C), the Km worked out at 4000 µM, the Vmax is reported as 38.00 U/mg and the kcat was found to be 26.00 S^−1. Also, in series [2] (other: 80° C., 80.0 °C), the Km amounted to 8000 µM, the Vmax is recorded as 420.00 U/mg and the kcat worked out at 290.00 S^−1.

One may read the Km as the substrate concentration at which the rate is half of its maximum.
